Data on 140 substances can be found in the supplement of paper PMC12042874.

± gives the uncertainty stated by the source.

The data set is described as follows: amyloid nucleation score (Sup35N fusion, yeast selection) (log enrichment); library NNK1; higher = more nucleation; inactive = no reads after selection. The essentials: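 DiMSum was used to calculate nucleation scores as log enrichment of output over input reads, centred on the mode score of non-aggregating sequences. Sequences with fewer than 100 input reads were not scored. Input and output came from Illumina sequencing of plasmid inserts in psi-negative yeast expressing peptides of 20 random codons fused to Sup35N, induced 24 hours with 100 μM copper sulfate and then grown 7 days at 30°C on medium lacking adenine and uracil.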

On to MMLRLRT, for which the amyloid nucleation score result is “inactive”.
The figure for GSLAW is -0.972 ± 0.94; for DWQSVRKFLRSVVIRMVSLV it is -0.399 ± 0.24; for ICNPGVS it is 0.71 ± 0.8.
In the case of TGRCR it was “inactive”.
In the case of SLPFVTLLNAMCVCSGANCL it was 8.449 ± 0.045; in that of DKNGIPYISCEYNQM, -0.46 ± 0.72; in that of LQQITGSCSFSGWGLK, 0.091 ± 0.46.
For SLLPDPHYMTQVW, the amyloid nucleation score is -0.559 ± 0.55.
CFRHR registered an amyloid nucleation score of 0.428 ± 0.5.
In the case of SNECLRNGAFYDCPVREAWM it was -0.346 ± 0.27; in that of SALHVHRVKGSRREVSRDT, -0.072 ± 0.31.
In the case of VKSADIIVL it was -0.357 ± 0.34.
Take CSVGASAIGNM: the amyloid nucleation score turned out to be 0.717 ± 0.59.
Regarding SALSGWVANSCYEVRGLRNV, the amyloid nucleation score entry is “inactive”.
Take QHCRA: the amyloid nucleation score amounted to 0.639 ± 0.88.
The figure for TQMMDALFLSAL is 0.935 ± 0.79; for QMGCAYEDARRSHDFKCCFG it is 0.013 ± 0.42.
CPHALYKSLIIPGSMFYKVR: the amyloid nucleation score is -1.04 ± 1.7.
The figure for GFNKR is -0.991 ± 2.4; for TSKGCQ it is “inactive”.
On to KICTYSRFC, for which the amyloid nucleation score is 0.848 ± 0.39.
The substance MKFFRRFYREYF showed an amyloid nucleation score of -0.431 ± 1.
The substance IWGKC came in with an amyloid nucleation score of -0.644 ± 0.76.
In the case of SRKVKVWPVGLRRLVMFFVN it was 1.43 ± 0.53; in that of VRMIFVQCWKCTESNFCERN, -0.174 ± 0.66; in that of FATMGSKKCSGARHSKRGSC, -0.26 ± 0.34.
FTFYYCIRY yielded an amyloid nucleation score of 0.673 ± 0.47.
In the case of WPVYEDKACCHVDAHKGEAT it was 0.838 ± 0.48.
The figure for CASMMPDSVSVRTKSNVT is -1.02 ± 1.3; for LGKIAQLYSEEVEQKSGSGV it is -0.539 ± 0.42; for SIFLKIPNREVLSSFRWTCF it is -0.372 ± 0.22.
As to VWFNPYLNDRSREGGRVVWM, the amyloid nucleation score was 0.099 ± 0.27.
In the case of VKDATSHASGDFGRPGHWDK it was -0.042 ± 0.55; in that of HTLDSISGSCGPLIAIVDFQ, “inactive”.
In the case of GLGVVPITAERRVSLRYSEC it was -0.242 ± 0.35; in that of CVSLCVHKDMIVIAPGTLTQ, 4.81 ± 0.064; in that of TDYSFKLFTFFSSESNGFPI, -1.01 ± 1.
In the case of LASHHLACCYPNLSTSYLNP it was -0.118 ± 0.84; in that of VVMLSVSPLTIHRGSFRDCS, 2.97 ± 0.1; in that of IEWVPTT, “inactive”.
The substance AVLRRYQFVYDLSYLYEDFL returned an amyloid nucleation score of -0.836 ± 0.48.
Substance SVSVNHSLPTLESDL returned an amyloid nucleation score of -0.682 ± 0.62.
In the case of FNTALSDPYVTMWHYYTNYC it was -0.8 ± 0.63.
Turning to LTSSCQSSLKRKWGNIWHIR, the amyloid nucleation score was -0.641 ± 1.1.
The figure for AFRRNSPVSWSRR is 0.37 ± 0.35; for LNCGHYQIASGF it is 0.393 ± 0.72.
The figure for QRIFTRLIYIRYAIPKFRTK is -0.399 ± 0.32; for LIVRNRHCLGAPFENFFSAR it is 0.671 ± 0.37; for LLVGMPPNIDM it is -0.078 ± 0.41.
The figure for LWSTMICLVFMYPIILVNFT is 1.64 ± 0.36; for WNEVILILDNCAIVCYDILT it is 4.05 ± 0.054; for NDLAKHLGFTVTF it is 0.011 ± 0.28.
In the case of PVGRCDQRDTRIHWGNYKVE, the amyloid nucleation score result was “inactive”.
With SSVFCFIGKASEAVILAIYC, the amyloid nucleation score is -0.052 ± 0.79.
The entry for SIYKSSEREVVY is “inactive”; for FSILILRHCVDLRYRVTSTM it is 0.446 ± 0.6; for HYGSWLCELDVVLYCDCSVM it is 0.021 ± 0.62.
The substance GLCNGCIFWRVKRIKGLKWF yielded an amyloid nucleation score of -0.381 ± 0.22.
The figure for TGNYDYVSFNQRKLHGCFNQ is -0.652 ± 0.93.
The substance FSMVLSSTMDLRRELLWNSV gave an amyloid nucleation score of -0.299 ± 0.73.
Substance DGLKGSLCGMGHRLCLKKMN came in with an amyloid nucleation score of 0.131 ± 0.41.
The figure for CLNVCSLFRSTYRFKRVREC is 0.434 ± 0.37; for MSSVVLANFEGPAHELATGV it is -0.072 ± 0.58.
In turn, WDLCISINYSVFLNLACSV showed an amyloid nucleation score of 3.25 ± 0.098.
Substance SVVTFT registered an amyloid nucleation score of 0.575 ± 0.49.
In the case of CPRHVALGHLNYLGQDFDLK it was 0.326 ± 1.2; in that of WTISSKGFFCWINCGLLQKR, 5.704 ± 0.05; in that of QCRILAHAGLLPSGTCPMWL, -0.919 ± 0.92.
As for QIRGGGAGSDSVDGHRALEA, the amyloid nucleation score was 1.08 ± 0.59.
The figure for VYFSSLVIFWYLFLYSFEYL is 0.689 ± 0.48; for FSGHFNARGFSDSWYVCMIG it is -0.855 ± 1.6; for LIYESNREHYYMRSRSAVTR it is -0.825 ± 0.99.
Substance AMYVDQVLHQPRPLMSPRMQ displayed an amyloid nucleation score of 0.515 ± 0.51.
In the case of LHTCHSLLPLIEYDFISYGV it was -0.208 ± 0.7.
In turn, IISLVNVWQNMCR had an amyloid nucleation score of 5.15 ± 0.077.
In the case of AESWCAGSKIIHSIGWSKDR it was 0.589 ± 0.54.
Substance LIVNLDMTSVLHVSGELR came in with an amyloid nucleation score of 5.22 ± 0.078.
Regarding FSYNVVLRFSLRISSNYFAS, the amyloid nucleation score is -1.12 ± 0.86.
Substance ITLIGQHRFLLVFSTNQLNH displayed an amyloid nucleation score of 0.46 ± 0.3.
In the case of SKSGLDDGHDA it was -0.335 ± 0.23; in that of SLLLLMGALSHGMRLFKGSS, 0.268 ± 0.82; in that of IYRDGIGTDIWFRGSICKCL, 0.704 ± 0.61.
The figure for ILIAIMNFARSEVVTNGHIR is 2.13 ± 0.41.
In turn, AISVWMSMNGPITPDR gave an amyloid nucleation score of 0.907 ± 0.59.
In the case of LTCKMDIDKVWVGDMLYS it was -0.677 ± 0.62; in that of YSYGCCSMLNVVS, 1.93 ± 0.2; in that of AVPCSC, 0.189 ± 0.3.
PTLVRECFEALSVSDYPVPG: the amyloid nucleation score is -0.674 ± 1.7.
YHFTSFSNVHHLAHRVGNSF displayed an amyloid nucleation score of -0.333 ± 1.4.
With LRAYSVAFYRLPHVSN, the amyloid nucleation score worked out at 1.35 ± 0.79.
Substance LKLCKVRMQTLLNDVGTSCP came in with an amyloid nucleation score of 0.025 ± 0.4.
The entry for PYWWS is “inactive”.
The figure for IIILYMLRPAMSGWDVFACC is 0.627 ± 0.18; for LRHLVIGNKNALLVWFRSHI it is 0.817 ± 0.52; for LYSAGRCYARSCVKL it is 0.829 ± 0.27.
The figure for LFFECVTLHLYLVKSS is -1.1 ± 2.4.
Consider WFIRARFTLGKRNELREVI, for which the amyloid nucleation score worked out at 0.647 ± 0.64.
In the case of RILEGVFS it was “inactive”.
The figure for RNVLWMILMYRCRSGGLCNG is 0.737 ± 0.52; for GIGAGYKFNDTVFSEGCSSG it is 0.653 ± 0.93; for EYNGCYFPRIM it is 0.628 ± 0.66.
In the case of VGYSPVVFSLNNICGSPFLM it was 5.277 ± 0.047; in that of CIVNMNRGWISIDLLRD, 5.78 ± 0.073; in that of VTYSYASGDGPDSLWCT, -0.026 ± 0.84.
VKRGHNGGSAITISLDLYLF returned an amyloid nucleation score of 5.11 ± 0.069.
In turn, NMRYHGISCRYRKYYFRWLD gave an amyloid nucleation score of -0.261 ± 0.31.
As for RVGQSCCDFT, the amyloid nucleation score was -0.047 ± 1.1.
The figure for LAIEENVRDQSGDYVWALIL is -0.122 ± 0.35; for FFRIARCHLEDRWVMIAGVL it is 0.118 ± 0.68; for PFHGFGR it is -1.04 ± 0.53.
Consider LFMIMLL, for which the amyloid nucleation score was -1.01 ± 0.43.
YGQMVIFGPVMLMAVLTW gave an amyloid nucleation score of 3.33 ± 0.093.
The figure for WQRNDQWMVVQVITVSV is 0.176 ± 0.47.
With TNVKQQACRLRSS, the amyloid nucleation score amounted to 4.83 ± 0.063.
In the case of NINYLFVLYMDGSCMYWRAL, the amyloid nucleation score was found to be 6.354 ± 0.049.
Turning to NSWRRE, the amyloid nucleation score amounted to 1.02 ± 0.93.
As for KCLTLSCILDVCKNIVEEMI, the amyloid nucleation score was found to be 0.047 ± 0.46.
The figure for CFNVSVSGEDSFLFGYGWHI is 0.159 ± 0.66; for IMAFNDRDHG it is -0.093 ± 0.21.
ILQFFDILSIYVCGWEHEL: the amyloid nucleation score came out at 6.273 ± 0.053.
The figure for GAFEGVFHRVMSDGRGAFAR is -0.289 ± 0.42.
For the substance FYSMSGWYSTVKGVCIRTLT, the amyloid nucleation score turned out to be 1.02 ± 0.35.
In the case of RYSGFLSVSLL it was -0.087 ± 1.
In the case of FVRVLTFPYPMNVFIRLSLA it was “inactive”; in that of RTSLNLNIRNTWAKWLGAEF, 4.29 ± 0.1; in that of NWNVGTQTKHVDNFLHKVIN, -0.315 ± 0.74.
In the case of LCELQYAKWIMKLVYKTFTT, the amyloid nucleation score result is “inactive”.
In the case of RFWINIPKYSTIL it was -0.751 ± 1.7; in that of DYFIVGTSVGGDSVTLDNQM, 0.042 ± 0.34.
In turn, DVLVHLP yielded an amyloid nucleation score of -0.917 ± 1.2.
In turn, KNDYSYWL returned an amyloid nucleation score of -0.275 ± 0.65.
The substance RYNMPFYRDRRFCFFEKGLG returned an amyloid nucleation score of -0.077 ± 0.77.
In the case of HNFEFFMGQGMIFWCRLTEN it was 1.24 ± 0.56; in that of NVDKHVWFGGVIVVNLWHIR, 6.827 ± 0.054; in that of ASQRSQNCCIVESIDEVLFS, 0.85 ± 0.41.
The figure for CSTALLDEKLLFHGTYIMRD is 1.08 ± 0.57; for AMCLV it is -0.373 ± 0.88.
The figure for GPNTPSWYGCL is 0.196 ± 0.6; for FCWLSMRAIRISSS it is 0.531 ± 0.44.
